Laboratory results as given in the nanobody polyreactivity screen of Harvey et al. (2022).

Assay: yeast display, Sf9 membrane polyspecificity reagent, FACS + sequencing; frameworks hold sequencing errors
In short: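 A nanobody's polyreactivity label depends on the gate it was sorted from. Yeast display cells were stained with 10% biotinylated, detergent-solubilized Sf9 membrane reagent for 1 hour at 4 °C, enriched on streptavidin microbeads and sorted by FACS. The low and high (top ~1%) gates were set on anti-HA fluorescence for expression and streptavidin fluorescence for reagent binding.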

| Sequence | polyreactivity (PSR sort gate) |
| --- | --- |
| QVQLVDSGGGLVQAGGSLRLSCAASGSTFGSYAMGWYRQAPGKERELVAAISWNGGRTYYADSVKGRFTISRDNAKNTVYLQMNSLKPEDTAVYYCAKVVKYQSGGGLDYWGQGTQVTVSS | high polyreactivity |
| QVQLVDSGGGLVQAGGSLRLSCAASGSTFKYYAMGWYRQAPGKERELVAAISGRGGRTYYADSVKGRFTISRDHAKNTVYLQMNSLKPEDTAVYYCNAPFLGAHHYGYEYWGQGTQVTVSS | high polyreactivity |
| QVQLVDSGGGLVQAGGSLRLSCAASGSTFNPYAMGWYRQAPGKERELVAGISWSGGSTYYADSVKGRFSISRDNAKNTVYLQMNSLKPEDTAVYYCAVVVYWSVIYDFWGQGTQVTVST | low polyreactivity |
| QVQLVDSGGGLVQAGGSLRLSCAASGSTFRYNAMGWYRQAPGKERELVAAIDKRGDSTYADSVKGRFTISRDNAKNTVYLQLNSLKPEDTAVYYCAADSDSKYNYGFLWDTYEYWGQGTQVTVSS | low polyreactivity |
| QVQLVDSGGGLVQAGGSLRLSCAASGSTFRYNAMGWYRQAPGKERELVAAIDKRGDSTYADSVKGRFTISRDNAKNTVYLQMNSLKPEDTAVYYCAADSDSKYNYGFLWDTYEYWGQGTQVTVSS | low polyreactivity |
| QVQLVDSGGGLVQAGGSLRLSCAASGSTFVQYAMGWYRPAPGKERELVAAISTGGSTNYADSVKGRFTISRDNAKNTVYLEMNSLKPEDTAVYYCNVAVWTIVQSLYPYDYWGQGTQVTVSS | low polyreactivity |
| QVQLVDSGGGLVQAGGSLRLSCAASGSTFWYNAMGWYRQAPGKERELVAANSISDGNTYYADSVKGRFTISRDNAKNTVFLQMYSLKPEDTAVYYCNAGYWYDGPDYITEYDYWGQGTQVTVSS | low polyreactivity |
| QVQLVDSGGGLVQAGGSLRLSCAASGSTIPIYAMVWYRQAPGKERELVARITWSGGSTYYADSVKGRFTISRDNAKNTVYLQMNSLKPEDTAVYYCAAVVITTPYDRYYYWGQGTQVTVSS | high polyreactivity |
| QVQLVDSGGGLVQAGGSLRLSCAASGSTIPNYAMGWYRQAPGKERELVADIDSSGGSTYYADSVKGRFTISRDNAKNTVYLQMNSLKPEDTAVYYCAAGYFWYDVLNSRVLVWNNYWGQGTQVTVSS | high polyreactivity |
| QVQLVDSGGGLVQAGGSLRLSCAASGSTLNSYVIGWYRQAPGKERELVATIRSGSSTNYADSVKGRFTISRDNAKNTVYLQMNSLKPEDTAVYYCAADAYSLCYDSWGQGTQVTVSS | low polyreactivity |
| QVQLVDSGGGLVQAGGSLRLSCAASGSTSYWYAMGWYRLAPWKEMELFATIRSRGGSTSYADSVKGRFTISRDNAKNTVYLQMNSLKPEDTAVYYCAVEYQSWKGWWFDYWGQGTQVTVSS | high polyreactivity |
| QVQLVDSGGGLVQAGGSLRLSCAASGSTVQYYAMGWYRQAPGKERELVAAITHSGTRTYYADSVKGRFTISRDNAKNTVYLQINSLKPEDTAVYYCAARGYGKYDYWGQGTQVTVSS | high polyreactivity |
| QVQLVDSGGGLVQAGGSLRLSCAASGYTFVGYAMGWSRQAPGKERELVAVISGSGGSTRYADSVKGRFTISRDNAKNTVYLQMNSLKPEDTAVYYCAARQPRTQAVYEGYYWGQGTQVTVSS | high polyreactivity |
| QVQLVDSGGGLVQAGGSLRLSCAASVRIFTINAMGWYRPAPGKDRELVAAISDGGGSTYYADSVKGRFTISRYNAKNTVYLQMNSLKPEDTAVYYCARKSWPKERRVDPGYDYGGQGTQVTVSS | low polyreactivity |
| QVQLVDSGGGLVQAGGSLRLSCASSGFIFAVYAMGWYRQAPGKERELVARISWSGGSTYYADSVKGRFTISRDNAKNTVYLQMNSLKPEDTAVNYCWGQGTQVTVSS | low polyreactivity |
| QVQLVDSGGGLVQAGGSLRLSCASSGRIFHGYAMGWYRHAPGKERELVAAIDEDGGSTYYADSVKGRFTISRDNAKNTVYLQMNSLKPEDTAVYYCATDALYTYGYDYWGQGTQVTVSS | low polyreactivity |
| QVQLVDSGGGLVQAGGSLRLSCDASGFIFERYAMGWYRQAPGKERELVAGIYSGGSTYYADSVKGRFTISRDNAKNTVYLQMNSLKPEDTAVYYCAPYRRQHIIYNYWGQGTQVTVSS | high polyreactivity |
| QVQLVDSGGGLVQAGGSLRLSCDASGSTFRGYAMGWYRKAPGKERELVAAISSRGARTHYADSLKGRFTISRDNAKNNVYLQMNSLKPEDTAVYYCNKRQVFFSTGEYEFDYWGQGTQVTVSS | low polyreactivity |
| QVQLVDSGGGLVQAGGSLRLSCPASGITLNHYVMGWYRQAPAKETELVAAISSSGGSTYYADSVKGRFTISRDNAMITVYLQMNSLKPEDTAVYYCAKDYNGRYTWRYEYWGQGTQVTVSS | high polyreactivity |
| QVQLVDSGGGLVQAGGSLRLSCPASGSIISVYARGWYRQAPGKERELVADITGTGDTYYADSVKGRFTISRDKAKNTVYLHRNSLKPDDTAGYYCNTVYELYYDPSVTEDYWGQGTQVTVSS | low polyreactivity |
| QVQLVDSGGGLVQAGGSLRLSCSASVRTFRGTAMGWYRHAPGKEREMVAPITYRTGSKYYPDSVKGRFTNSRDNAKNTVYLLLNSLKPEDSAVYYCAAVSGRSYDKDYFWGQGTQVTVSS | high polyreactivity |

| Sequence | polyreactivity (PSR sort gate) |
| --- | --- |
| QVQLVDSGGGLVQAGGSLRLSSAASGFIFQANAMGSSRQAPGKERELVAAIDDGDSTYADSVKGRFTISRDNAKNSVYLQMNSLKPEDTAVYYCATRRNRSYDYWGQGTQVTVSS | low polyreactivity |
| QVQLVDSGGGLVQAGGSLRLTCAASGRTFWKYCKGWYRQAPGQERELVAVMSRPAGSTYYADSVKGRFPISRDNAKNTGYLLLNRLKPEDTAVYSCAKRPKNKPVLGDYDHWGQGTQVTVSS | low polyreactivity |
| QVQLVDSGGGLVQAGGSLRLTCAASGTFYYYAMGWNRQAPGKERELVAAISYSGGRTYYADSVKGRFTISRDNAKNTVYLQMNSLKPEDTAFYYCNTDARSKKYIFDFDYWGQGTQVTLSS | high polyreactivity |
| QVQLVDSGGGLVQAGGSLRLTCGSSGSIFYYYVMGLYIQAHGKERELVAAISSGGGTNYSDSVKGRFTISRYNAKNTVYLQMNSLKPEDTAVYYCAKASAYGLANDYDYCGQGTQVTVSS | low polyreactivity |
| QVQLVDSGGGLVQAGGSLSLSCAASGFTFVRYAMGWYRQAPGKERELVAAISGRGGSTYFADSVKGRFTISRDYAKNTVYLQMNSLKPDDTAVYYCATDYSRTFDYWGQGTQVTVSS | high polyreactivity |
| QVQLVDSGGGLVQAGGSLSLSCAASGRTFARYTMGWSRQAPGKERELLAVISRSGGSTYYADSVKGRFTISRDNAKNSVYLKKNSLKQEDTAVYYCAAGYFVVTTLEYYFWGQGTQVTVSS | high polyreactivity |
| QVQLVDSGGGLVQAGGSLSLSCAASGRTFNYKAMGWYRQAPGKERELVAAISWGGGSTFYADSVKGRFTISRDNAKNTVYLEMNSLKPEDTAVYYCAAYRQYGNRGAYYSWGQGTQVTVSS | low polyreactivity |
| QVQLVDSGGGLVQAGGSLSLSCAASGRTFYPYAMGWYRQAPGKERELVARISRGGRTNYADSVKGRFTISRDNAKNTVYLQMNSLKPEDTAVYYCAAVYYGSYFITEDYWGQGTQVTVSS | low polyreactivity |
| QVQLVDSGGGLVQAGGSLSLSCAASGSTFVVNAMGWYRQAPGKERELVAAITQSGGSTFYADSVKGRFTISRDNAKNTVYLQMNSLKPEDTAVYYWGQGTQVTVSS | low polyreactivity |
| QVQLVDSGGGLVQAGGSLSLSCAASGYTFDTNAMGWYRQAPGKERELVAAIDFSGGTTYADSVKGRFTISRDNAKNTVYLQMNSLKPEDTAVYYCSADHSGGSRYDYWGQGTQVTVSS | low polyreactivity |
| QVQLVDSGGGLVQAGGTLRLSCAASGRTFSSYAMGWYIQAPGKERELVSAISWSGGITYYADSVKVRFTISRDNAKNTVYLQMNSLKPEDTAVYYCAVALTRRKSYEYSGGFWGQGTQVTVSS | high polyreactivity |
| QVQLVDSGGGLVQAGGTLRLSCAATGRTVSKYAMGWYRQAPGKERELVAAITRSGGRTYYADSVKGRFTISRDNAKNTVYLQMNSLKPEDTAVYYCARTTNQHTLATEDDYWGQGTQVTVSS | high polyreactivity |
| QVQLVDSGGGLVQAGVSLRLSCAASGFIFYRYAMVWYRQAPGKERELVAAINWSGGGTYYADSVKGRFTISRDNAKNTVYLLMNSLKPEDTAVYYCAAVRSFRGSYWYEYWGQGSQVTVSS | high polyreactivity |
| QVQLVDSGGGLVQAVGSLRLSCAASGSIFRLNAMGWYRQAPGKERDLVGAITWSDSSTYYADSVKGRFTISRDNAKNTVYLQMNSLKPEDTAVYYCAADPQSYKYDYWGQGTQVTVSS | low polyreactivity |
| QVQLVDSGGGLVQGGGSLRLSCAASGRTFGIYPMRWYRPAPGKERELVAAISRRGTSTYYADTVKGRFTISRDNAKNTVYLQLNSLKPEDTAVYYCATVGATVDNRDDYWGQGTQVTVSS | high polyreactivity |
| QVQLVDSGGGSVQAGGSLRLSCAASGSTFYENAMGWYREAPGKETELVAASTWSGGRTYYADSVKGRFTISRDNAKNTVYLQMYSLKPEDTAVYYCNARARSRKFYYWGQGTQVTVSS | high polyreactivity |
| QVQLVDSGRGLVQAGGSLRLSCAASGFIFNPYVMGWYRQAPGKERELVAVITSGGSTNYADSVKGRFTISRDNAKNTVYLQMNSLKPEDTAVYYCNVDRRPYYVWRVTYDYWGQGTQVTVSS | low polyreactivity |
| QVQLVDSGVGLVQAGGSLRLSCAASGRIFSVYAMGRYRHAPGKERELVASISSGGSTNYADSVKGRFTISRDNAKNTVYLQMNSLKPEDTAVYYCAADYWYRLFWYYGAPLDYWGLGTQVTVSS | low polyreactivity |
| QVQLVDSRGGLDQAGGSHRLSCAASGSTFSTNVMGWYRQAPGKERELVAAISISGTTTYYADSVKGRFTISRDNAKNTVYLQMNSLKPEDTAVYYCAAENYVAWTWHDYWGQGTQVTVSS | high polyreactivity |
| QVQLVDSRGGLVQAGGSLRLSCAASGFIFSRYAMGWSRQAPGKERELVAAISYRGGSTYYADSVKGRFTISRDNAKNPVYLQMNSLKPEDTAVYYCAASLRYYGLEMDYWGQGTQVTVSS | high polyreactivity |
